Where no end group is shown, it is not given here.

What all share (settings): both partners purified
The target in test [1] is T1, UAP56 (human, UniProt Q13838 1-428).
T1 construct: The methods name 6×His-TwinSTREPII-3C-UAP56 and 10×His-3C-UAP56; also called DDX39B; DDX39
The test can be described thus: pull-down.

Test [2] concerns the target T1, UAP56. The experiment in a line: pull-down; MBP-tagged full-length or truncated ALYREF (2.5 µM) on amylose resin with 12.5 µM UAP56, UCM-1, N-UBM or C-UBM or 6 µM full-length SARNP; with or without 1 mM ATP and 200 µM 15 U RNA; Coomassie.
For test [3], the target named is T1, UAP56. The experiment in a line: grating-coupled interferometry (GCI); biotinylated UBM or UCM peptides captured on a streptavidin chip; UAP56 injected; 25 mM HEPES pH 7.9, 50 mM KCl, 1 mM MgCl2, 1 mM TCEP, 25 °C; one-to-one model; UCM peptides also with AMP-PNP or AMP-PNP and 15 U RNA.
Test [4] addresses T2, Flag-tagged UAP56 (human, UniProt Q13838 1-428).
T2 construct: Used in an in vitro pull-down analysed by Coomassie staining
The experiment in a line: pull-down; Flag-tagged UAP56 (5 µM) on anti-Flag M2 beads with WT or mutant SARNP (20 µM); buffer A2, room temperature 1 h; Coomassie.

B1: 10×His-SUMO-3V5-tagged SARNP UCM-1 (residues 82-115) (peptide)
chain: VDVAAEKKVVKITSEIPQTERMQKRAERFNVPVS
notes: also called Sumo-V5–UCM-1; SUMO-V5-3C–UCM; source: E. coli BL21 DE3 RIL, purified (HisTrap, HiTrapQ, Superdex 75)
Consider B1, for which the binding result in test [1] is reported as “binds”.

B2: MBP-tagged ALYREF^N (residues 1–182) (domain or fragment)
chain: not shown
notes: also called ALYREF construct harbouring only an N-UBM
B2: the binding result in test [2] is on record as “binds”.
SISRKSEDDEKLKKRKERFGIVTS (also: biotinylated, site not given here) [SARNP UCM-4 peptide, biotinylated] displayed a Kd in test [3] of 10 to 20 µM.

B3: MBP-tagged ALYREF^C (residues 106–257) (domain or fragment)
chain: not shown
notes: also called ALYREF harbouring only a C-UBM
For B3, in test [2], the binding result is listed as “binds”.

B4: SARNP-6×His (full-length SARNP) (natural protein, human, UniProt P82979 1-210, looked up)
chain: MATETVELHKLKLAELKQECLARGLETKGIKQDLIHRLQAYLEEHAEEEANEEDVLGDETEEEETKPIELPVKEEEPPEKTVDVAAEKKVVKITSEIPQTERMQKRAERFNVPVSLESKKAARAARFGISSVPTKGLSSDNKPMVNLDKLKERAQRFGLNVSSISRKSEDDEKLKKRKERFGIVTSSAGTGTTEDTEAKKRKRAERFGIA
notes: SARNP, human; also called CIP29; recombinant full length SARNP; source: E. coli BL21 DE3 RIL, purified (HisTrap, HiTrapQ, Superdex 200)
In the case of B4, the binding result in test [4] is listed as “binds”.

B5: MBP-SARNP^47–210-3C-3V5-SUMO-10×His (domain or fragment, human, UniProt P82979 47-210, looked up)
chain: EEEANEEDVLGDETEEEETKPIELPVKEEEPPEKTVDVAAEKKVVKITSEIPQTERMQKRAERFNVPVSLESKKAARAARFGISSVPTKGLSSDNKPMVNLDKLKERAQRFGLNVSSISRKSEDDEKLKKRKERFGIVTSSAGTGTTEDTEAKKRKRAERFGIA
notes: SARNP, human, residues 47-210; also called MBP-SARNP residues 47-210; SARNP lacking the N-terminal SAP domain; source: E. coli BL21 DE3 RIL, purified; not shown: MBP, N-terminal, kept
Take B5: the binding result in test [4] was “binds”.

As usually defined, the Kd is the free concentration of one partner at which half of the binding sites on the other are occupied at equilibrium, for simple one-to-one binding. The low end stands for tighter binding, the high end for weaker binding.

These data come from article PMC12823420 (Nature, 2024).
